Source: patent US20250129169A1 (Stanford University, published 2025)

B1: γc-VHH4 (VHH)
VHH: QVQLQESGGGSVQAGGSLRLSCTASGFTFNEANHMGWYRQAPGNECELVSTISSDGTTYYPDSVKGRFTISQDNAKKTAFLQMNSLKPEDTAVYYCAADQSRRGSLCLGQGTQVTVSS
notes: also called γC nanobody clone 4
B2: γc-VHH3 (VHH)
VHH: QVQLQESGGGSVQAGGSLRLSCAASGYTYSKNWYMGWFRQTPGKEREGVAVIAYDDWPTYADSVKGRFTISKDNTKNTLYLQMNSLKPEDTAMYYCAARQLGGDYCYFPNLSRFCYNYWGQGTQVTVSS
notes: also called γC nanobody clone 3
B3: γ scFv2 (P2B9) (scFv)
scFv (VH-linker-VL): QVQLQESGPGLVKPSETLSLTCTVSGGSISSSSYYWGWIRQPPGKGLEWIGSIYYSGSTYYNPSLKSRVTISVDTSKNQFSLKLSSVTAADTAVYYCAGDILTGYALDYWGQGTLVTVSSGGGGSGGGGSGGGGSSYELTQPPSMSVSPGQTARITCSGDALPKQFAFWYQQKPGQAPVLVIYKDTERPSGIPERFSGSSSGTTVTLTITGVQAEDEADYYCQSPDSSGTVEVFGGGTKLTVL
notes: also called γc-scFv2 (P2B9)
B4: γc-VHH6 (VHH)
VHH: QVQLQESGGGSVQAGGSLRLSCAASGYTYRDYYMGWFRQAPGREREGVASIYTRGSREGSTRYSSSVEGRFTITLDTAKNTLYLQMNSLKPEDTAMYYCAADDRTWLPRVQLGGPRENEYNYWGQGTQVTVSS
notes: also called γC nanobody clone 6

Tests used:
[1] = target: T1, Human γC ECD (human, UniProt P31785 23-262, biotinylated (site not stated)); experiment: SPR, steady-state binding affinity (drawn table)
T1 construct: extracellular domain; Biotinylated and held on a streptavidin chip for SPR; also called common gamma; biotinylated human γC ECD
T1 sequence (looked up): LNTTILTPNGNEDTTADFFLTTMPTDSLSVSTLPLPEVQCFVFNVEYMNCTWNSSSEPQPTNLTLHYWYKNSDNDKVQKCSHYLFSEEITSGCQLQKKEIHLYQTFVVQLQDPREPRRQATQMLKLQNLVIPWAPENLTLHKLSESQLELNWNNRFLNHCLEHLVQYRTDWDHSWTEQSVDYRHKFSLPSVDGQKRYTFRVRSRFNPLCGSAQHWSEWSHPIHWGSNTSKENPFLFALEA
Description: (§1) FIGS. 2A-2H show data on SPR validation of IL-2Rβ- and γc-VHHs and agonist screening in YT-1 cells. (A) Biotinylated human IL-2Rβ ECD was immobilized on a streptavidin (SA) sensor chip, and varying concentrations of IL-2Rβ VHH were applied to determine binding parameters using SPR. Sensorgrams are shown on the left, and steady state binding is plotted on the right. Binding affinities (KD) were determined by fitting to steady state response values. (B) Biotinylated human γC ECD was immobilized on a SA chip, and varying concentrations of γc VHH were flowed over the chip to determine binding. […] (C) Steady-state binding affinities between VHH/scFv and IL-2R, as determined by SPR. Values for scFv affinities are derived from patent US20160367664A1 (Wang et al., 2016). (D) Table of pSTAT5 Eₘₐₓ values for the indicated VHH pairings. (E) Tuning IL-2 activity via generation of acid-base VHH zipper pairings. (F) Tuning IL-2 activity via generation of 2:1 β:γc or γc:β stoichiometries. VHH binding modules are linked together in a tripartite (β-γc-β or γc-β-γc) manner. Graph axes are represented as in (E). (G) Dose-response relationship of pSTAT5 geometric mean flurorescence intensities (gMFI) of selected agonists. (H) Corresponding histograms showing STAT5 activity in YT-1 cells treated with human IL-2 vs. IL-2 surrogate agonists at saturating concentration.

[2] = target: T1, Human γC ECD; experiment: SPR; biotinylated human γc ECD on streptavidin chip, VHH as analyte; KD from fit to steady-state responses [Cont.]
Description: as §1

[3] = target: T1, Human γC ECD; experiment: drawn table of affinities; the scFv value is derived from patent US20160367664A1 (Wang et al., 2016), not measured in this filing

Binder	Kd [1] [nM]	Kd [2] [nM]	Kd [3] [nM]
B1	20	19.7	
B2	7	6.7	
B3			79
B4	69	68.6	
